Source: article PMC6274713

Experiments:
MLL4 3500-3630 = MLL4 3500-3630 (UniProt O14686); experiment: MST; conditions: EMSA: LightShift RNA EMSA kit protocol, 1 or 2 nM RNA, 30 min at room temperature, 4 or 6% native PAGE, MST buffer, pH and temperature not given in the …
MLL4 4210-4280 = MLL4 4210-4280 (UniProt O14686); experiment: MST; conditions: apparent Kd; EMSA: LightShift RNA EMSA kit protocol, 1 or 2 nM RNA, 30 min at room temperature, 4 or 6% native PAGE; MST buffer, pH and temperature not given in the …

Substance	Kd (MLL4 3500-3630) [nM]	Kd (MLL4 3500-3630; apparent, from T-jump, aggregation above 1:20 RNA:protein, no saturation) [nM]	Kd (MLL4 4210-4280) [nM]
HOTAIR300	970		
HOTAIR440		100	13000
MEG3 full length	722		
